Reverse-splicing fitness data for 15 variants are collected here from the RNAGym collection of RNA variant scans (doi:10.1093/molbev/msab373).

The chains are these.
B1: Azoarcus group I ribozyme (parent)
chain: GUGCCUUGCGCCGGGAAACCACGCAAGGGAUGGUGUCAAAUUCGGCGAAACCUAAGCGCCCGCCCGGGCGUAUGGCAACGCCGAGCCAAGCUUCGGCGCCUGCGCCGAUGAAGGUGUAGAGACUAGACGGCACCCACCUAAGGCAAACGCUAUGGUGAAGGCAUAGUCCAGGGAGUGGCGAAAGUCACACAAACCGG

Variants of B1 are the subject of this series. As to the kind of experiment: reverse-splicing fitness (ratio to wild type); higher = more active; in vitro selection; Mg2+ level not given. The method, boiled down: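 An in vitro group I ribozyme library with randomized positions was T7-transcribed and gel-purified. In triplicate, 10 pmol RNA in EPPS pH 7.5 was reacted with 50 pmoles of a 30-nt RNA substrate for 1 h at 37 °C across several added MgCl2 levels (1–48 mM), then stopped with EDTA. Products were reverse transcribed from a substrate-complementary primer, PCR-amplified and sequenced (HiSeq 4000). Fitness is a variant's read proportion after selection over that before, normalised to wild type.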
Consider GUGCCUUGCGCCGGGAAACCACGCAAGGGAUGGUGUCAAAUUCGGCGAAACCUAAGCGCCCGCCCGGGCGUAUGGCAACGCCGAGCCAAGCUUCGGCGCCUGCGCCGAUGGAGGUGUAGGGACUAGACGGCACCCACCUAAGGCAAACGGUAUGGUGAAGGCAUAGUCCAGGGAGAGGCGAAAGUCACACAAACCGG [A111G A120G C150G U176A], for which the reverse-splicing fitness is 0.011.

Consider GUGCCUUGCGCCGGGAAACCACGCAAGGGAUGGUGUCAAAUUCGGCGAAACCUAAGCGCCCGCCCGGGCGUAUGGCAACGCCGAGCCAAGCUUCGGCGCCUGCGCCGAUGGAGGUGUAGGGACUAGACGGCACCCACCUAAGGCAAACGUUAUGGUGAAGGCAUAGUCGAGGGAGAGGCGAAAGUCACACAAACCGG [A111G A120G C150U C169G U176A], for which the reverse-splicing fitness was found to be 0.0529.

Take GUGCCUUGCGCCGGGAAACCACGCAAGGGAUGGUGUCAAAUUCGGCGAAACCUAAGCGCCCGCCCGGGCGUAUGGCAACGCCGAGCCAAGCUUCGGCGCCUGCGCCGAUGGAGGUGUAGGGACUAGACGGCACCCACCUAAGGCAAACGUUAUGGUGAAGGCAUAGUCGAGGGAGGGGCGAAAGUCACACAAACCGG [A111G A120G C150U C169G U176G]: the reverse-splicing fitness amounted to 0.00531.

On to GUGCCUUGCGCCGGGAAACCACGCAAGGGAUGGUGUCAAAUUCGGCGAAACCUAAGCGCCCGCCCGGGCGUAUGGCAACGCCGAGCCAAGCUUCGGCGCCUGCGCCGAUGGAGGUGUAGGGACUAGACGGCACCCACCUAAGGCAAACGUUAUGGUGAAGGCAUAGUCGAGGGAGCGGCGAAAGUCACACAAACCGG [A111G A120G C150U C169G U176C], for which the reverse-splicing fitness turned out to be 0.0735.

As to GUGCCUUGCGCCGGGAAACCACGCAAGGGAUGGUGUCAAAUUCGGCGAAACCUAAGCGCCCGCCCGGGCGUAUGGCAACGCCGAGCCAAGCUUCGGCGCCUGCGCCGAUGGAGGUGUAGGGACUAGACGGCACCCACCUAAGGCAAACGUUAUGGUGAAGGCAUAGUCCAGGGAGUGGCGAAAGUCACACAAACCGG [A111G A120G C150U], the reverse-splicing fitness amounted to 0.156.

With GUGCCUUGCGCCGGGAAACCACGCAAGGGAUGGUGUCAAAUUCGGCGAAACCUAAGCGCCCGCCCGGGCGUAUGGCAACGCCGAGCCAAGCUUCGGCGCCUGCGCCGAUGGAGGUGUAGGGACUAGACGGCACCCACCUAAGGCAAACGUUAUGGUGAAGGCAUAGUCUAGGGAGUGGCGAAAGUCACACAAACCGG [A111G A120G C150U C169U], the reverse-splicing fitness was 0.142.

With GUGCCUUGCGCCGGGAAACCACGCAAGGGAUGGUGUCAAAUUCGGCGAAACCUAAGCGCCCGCCCGGGCGUAUGGCAACGCCGAGCCAAGCUUCGGCGCCUGCGCCGAUGGAGGUGUAGGGACUAGACGGCACCCACCUAAGGCAAACGUUAUGGUGAAGGCAUAGUCGAGGGAGUGGCGAAAGUCACACAAACCGG [A111G A120G C150U C169G], the reverse-splicing fitness came to 0.177.

For the variant GUGCCUUGCGCCGGGAAACCACGCAAGGGAUGGUGUCAAAUUCGGCGAAACCUAAGCGCCCGCCCGGGCGUAUGGCAACGCCGAGCCAAGCUUCGGCGCCUGCGCCGAUGGAGGUGUAGGGACUAGACGGCACCCACCUAAGGCAAACGUUAUGGUGAAGGCAUAGUCAAGGGAGUGGCGAAAGUCACACAAACCGG [A111G A120G C150U C169A], the reverse-splicing fitness stood at 0.0914.

Take GUGCCUUGCGCCGGGAAACCACGCAAGGGAUGGUGUCAAAUUCGGCGAAACCUAAGCGCCCGCCCGGGCGUAUGGCAACGCCGAGCCAAGCUUCGGCGCCUGCGCCGAUGGAGGUGUAGGGACUAGACGGCACCCACCUAAGGCAAACGCUAUGGUGAAGGCAUAGUCAAGGGAGUGGCGAAAGUCACACAAACCGG [A111G A120G C169A]: the reverse-splicing fitness amounted to 0.165.

Regarding GUGCCUUGCGCCGGGAAACCACGCAAGGGAUGGUGUCAAAUUCGGCGAAACCUAAGCGCCCGCCCGGGCGUAUGGCAACGCCGAGCCAAGCUUCGGCGCCUGCGCCGAUGGAGGUGUAGGGACUAGACGGCACCCACCUAAGGCAAACGGUAUGGUGAAGGCAUAGUCUAGGGAGAGGCGAAAGUCACACAAACCGG [A111G A120G C150G C169U U176A], the reverse-splicing fitness is 0.0138.

With GUGCCUUGCGCCGGGAAACCACGCAAGGGAUGGUGUCAAAUUCGGCGAAACCUAAGCGCCCGCCCGGGCGUAUGGCAACGCCGAGCCAAGCUUCGGCGCCUGCGCCGAUGGAGGUGUAGGGACUAGACGGCACCCACCUAAGGCAAACGGUAUGGUGAAGGCAUAGUCUAGGGAGGGGCGAAAGUCACACAAACCGG [A111G A120G C150G C169U U176G], the reverse-splicing fitness amounted to 0.00593.

As for GUGCCUUGCGCCGGGAAACCACGCAAGGGAUGGUGUCAAAUUCGGCGAAACCUAAGCGCCCGCCCGGGCGUAUGGCAACGCCGAGCCAAGCUUCGGCGCCUGCGCCGAUGGAGGUGUAGGGACUAGACGGCACCCACCUAAGGCAAACGGUAUGGUGAAGGCAUAGUCUAGGGAGCGGCGAAAGUCACACAAACCGG [A111G A120G C150G C169U U176C], the reverse-splicing fitness turned out to be 0.0166.

GUGCCUUGCGCCGGGAAACCACGCAAGGGAUGGUGUCAAAUUCGGCGAAACCUAAGCGCCCGCCCGGGCGUAUGGCAACGCCGAGCCAAGCUUCGGCGCCUGCGCCGAUGGAGGUGUAGGGACUAGACGGCACCCACCUAAGGCAAACGUUAUGGUGAAGGCAUAGUCUAGGGAGGGGCGAAAGUCACACAAACCGG [A111G A120G C150U C169U U176G]: the reverse-splicing fitness stood at 0.00845.

On to GUGCCUUGCGCCGGGAAACCACGCAAGGGAUGGUGUCAAAUUCGGCGAAACCUAAGCGCCCGCCCGGGCGUAUGGCAACGCCGAGCCAAGCUUCGGCGCCUGCGCCGAUGGAGGUGUAGGGACUAGACGGCACCCACCUAAGGCAAACGUUAUGGUGAAGGCAUAGUCUAGGGAGAGGCGAAAGUCACACAAACCGG [A111G A120G C150U C169U U176A], for which the reverse-splicing fitness was found to be 0.0545.

Take GUGCCUUGCGCCGGGAAACCACGCAAGGGAUGGUGUCAAAUUCGGCGAAACCUAAGCGCCCGCCCGGGCGUAUGGCAACGCCGAGCCAAGCUUCGGCGCCUGCGCCGAUGGAGGUGUAGGGACUAGACGGCACCCACCUAAGGCAAACGUUAUGGUGAAGGCAUAGUCUAGGGAGCGGCGAAAGUCACACAAACCGG [A111G A120G C150U C169U U176C]: the reverse-splicing fitness worked out at 0.0607.
